Laboratory results as given in patent US6893843B2, “Nucleic acids” (priority 1990, dated 2005).
Where two headings read alike, the source gives them in different places. No end group written: not given here.

Columns and labels:
Acid stability = type: physicochemical
Isoelectric focussing = type: physicochemical; settings: silver stain and enzymatic detection in gel slices
Experimental: Isoelectric focussing was performed by using Servalyt Precoates pH 3-10 and Test-Mix 9 (Serva). Prefocussing was for 30 minutes at 3 watts, and silver stain (Sigma) or Comassie blue R stain was used according to Serva instructions. In parallel, the precoates were sliced and eluted to localise inhibitory active peptides. Approximately 1 mm slices were eluted with 100 μl acetonitrile. The eluates were allowed to dry and were resolved in 100 μl of buffer (0.1M HEPES, 0.5M NaCl, 1% BSA, pH 7.5) containing 20 ng HLE. After 30 minutes incubation the remaining HLE activity was determined.

trypsin = assay: Inhibition of trypsin (TGPLpNA substrate); type: biochemical
Experimental: (§1) 100 μl inhibitor (1 μg/ml) and 100 μl trypsin (1 μg/ml) or plasmin (1 μg/ml) as appropriate were incubated for 30 minutes before adding the substrate, 0.1 mM tosyl-glycyl-prolyl-lysin-pNA (Boehringer Mannheim, FRG) in 0.05M HEPES, 0.12M NaCl, pH7.5.

Alpha-chymotrypsin = Alpha-chymotrypsin (Bos taurus, UniProt P00766); assay: Inhibition of Alpha-chymotrypsin (AAPFpNA substrate); type: biochemical
Experimental: (§2) The activities of cathepsin G and Alpha-chymotrypsin were determined according to the method of Nakajima et al (9) using an analogue to HLE—succinyl-alanyl-alanyl-prolyl-phenylalanyl-p-nitroanilide (AAPFpNA, Sigma). For inhibition experiments, the highest concentration of the inhibitor was 1 μg/ml, representing a threefold molar concentration as compared to cathepsin G and Alpha-chymotrypsin.

human leukocyte elastase = target: T1, human leukocyte elastase (Homo sapiens, UniProt P08246); assay: Inhibition of human leukocyte elastase (AAPVpNA substrate; Ki by Green and Work); type: biochemical; settings: for Ki: method of Green and Work
T1 construct: purchased Elastin Products Corporation, Pacific, Mo., USA
T1 sequence (P08246 30-267): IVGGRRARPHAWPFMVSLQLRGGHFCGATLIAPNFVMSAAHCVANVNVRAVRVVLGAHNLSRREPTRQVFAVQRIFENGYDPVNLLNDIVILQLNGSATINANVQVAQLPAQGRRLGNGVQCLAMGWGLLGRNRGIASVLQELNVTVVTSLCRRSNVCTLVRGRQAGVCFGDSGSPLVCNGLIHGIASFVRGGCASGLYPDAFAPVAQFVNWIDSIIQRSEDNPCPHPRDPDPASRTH
Experimental: The potency of polypeptides of the present invention to act as an elastase inhibitor was determined by the ability of a compound of the invention to inhibit the action of human leukocyte elastase (HLE) on a low molecular weight peptide substrate. The potency of an inhibitor was evaluated by obtaining a kinetic determination of the dissociation constant, Ki, of the complex formed from the interaction of th inhibitor with HLE. The substrate used was the anilide methoxysuccinyl-alanyl-alanyl-prolyl-valine-p-nitroanilide as described by K. Nakajima et al. in the J. Biol. Chem., 254: 4027-4032 (1979) and by T. Teshima et al. in J. Biol Chem., 257: No 9, 5085-5091 (1982). The HLE enzyme used in these studies may be obtained from Elastin Products of St. Louis, Mo. or can be purified according to B. R. Viscarello et al. in Preparative Biochemistry, Vol. 13, pages 57-67, (1983).
The activity of human leukocyte elastase (EC 3.4.21.37) was determined according to the method of Nakajima et al (7). Inhibition of HLE was determined by the use of the synthetic peptide methoxy-succinyl-alanyl-alanyl-prolyl-valyl-p-nitro anilide (AAPVpNA, Sigma).
Sample (100 μl) and 100 μl HLE (200 ng/ml; Elastin Products Corporation, Pacific, Mo., USA) in assay buffer (0.1M, HEPES, 0.5M NaCl, 10% DMSO, pH 7.5) were incubated for 30 minutes at room temperature. Substrate (800 μl 0.5 mM) in assay buffer was then added.
Changes in absorbance at 405 nm were followed up to 1 hour and the %-inhibition was calculated from the remaining activity and controls. The dissociation constant (Ki) was determined according to the method of Green and Work (8) in the same system, using 2 mM substrate and (1 μg/ml) HLE (final concentrations).

human cathepsin G = target: T2, human cathepsin G (Homo sapiens, UniProt P08311); assay: Inhibition of cathepsin G (AAPFpNA substrate); type: biochemical; settings: substrate 0.5 mM AAPFpNA; inhibitor up to 1 μg/ml (threefold molar); n.i. = no inhibition
T2 sequence (P08311 21-255): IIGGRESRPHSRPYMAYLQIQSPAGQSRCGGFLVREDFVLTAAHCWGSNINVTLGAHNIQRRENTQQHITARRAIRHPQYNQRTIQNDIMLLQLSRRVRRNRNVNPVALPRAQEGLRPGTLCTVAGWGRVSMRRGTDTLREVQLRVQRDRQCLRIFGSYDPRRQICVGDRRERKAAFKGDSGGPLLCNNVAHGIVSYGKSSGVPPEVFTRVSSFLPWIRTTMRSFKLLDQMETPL
Experimental: as §2

Proteinase 3 = target: T3, Proteinase 3 (Homo sapiens, UniProt P24158); assay: Inhibition of proteinase 3 (elastin-FITC hydrolysis); type: biochemical; settings: 37° C., 4 hours, pH 8.5, read-out: IC50 against proteinase 3
T3 construct: Proteinase 3 was purified from human polymorphonuclear leukocytes using the method of Ludemann; from tissue; host or cells: human polymorphonuclear leukocytes
T3 sequence (P24158 28-256): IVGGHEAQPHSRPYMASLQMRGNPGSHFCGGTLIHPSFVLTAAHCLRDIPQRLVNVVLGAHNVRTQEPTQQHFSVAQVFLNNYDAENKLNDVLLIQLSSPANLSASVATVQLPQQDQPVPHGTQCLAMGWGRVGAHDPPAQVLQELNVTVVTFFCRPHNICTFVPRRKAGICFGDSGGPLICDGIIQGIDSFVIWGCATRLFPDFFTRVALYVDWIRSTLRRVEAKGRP
Experimental: Proteinase 3 was purified from human polymorphonuclear leukocytes using the method of Ludemann reported in J Exp Med 171, 357-362, 1990. The absence of human leukocyte elastase and cathespin G was confirmed by the lack of activity of the proteinase 3 preparation with the substrates methoxy-succinyl-ala-ala-pro-val-p-nitroanilide (AAPVpNA), and succinyl-ala-ala-phe-p-nitroanilide respectively according to the method of Nakajima (7).
The elastinolytic activity was determined by hydrolysis of bovine ligamentum nuchae elastin-FITC (Elastin Products Corporation, USA).
The proteinase 3 preparation (1 μl) was preincubated at 37° C. for 30 minutes with the elastase inhibitor of formula I (0-1 μg) in carbonate buffer (50 μl, 0.1M), NaN3 (0.02%), Brij 35 (0.01%), pH8,5. Elastin-FITC (1 mg) in carbonate buffer (100 μl, 0.1M), NaN3 (0.02%), Brij 35 (0.01%), pH8.5. The mixture was incubated at 37° C. with gentle agitation for 4 hours, and then centrifuged at 6000×g. The supernatants were diluted 1:20 and the fluorescence of the solubilised elastin-FITC was determined using a Perkin Elmer LS 50 microtiterplate reader at Ex489 nm, Em 513 nm. Fluorescence was corrected by enzyme free controls and inhibition expressed in % of inhibitor free controls.

plasmin = plasmin (Homo sapiens, UniProt P00747); assay: Inhibition of plasmin (TGPLpNA substrate); type: biochemical
Sequence of plasmin (P00747 581-810 limits assumed, species assumed): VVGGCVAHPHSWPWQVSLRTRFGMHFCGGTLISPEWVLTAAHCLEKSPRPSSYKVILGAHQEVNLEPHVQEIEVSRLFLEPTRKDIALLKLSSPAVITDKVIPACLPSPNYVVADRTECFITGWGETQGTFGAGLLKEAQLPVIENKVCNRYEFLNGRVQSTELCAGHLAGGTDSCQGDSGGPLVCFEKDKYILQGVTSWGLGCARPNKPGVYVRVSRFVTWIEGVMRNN
Sequence of plasmin (P00747 97-580 partner limits assumed, species assumed): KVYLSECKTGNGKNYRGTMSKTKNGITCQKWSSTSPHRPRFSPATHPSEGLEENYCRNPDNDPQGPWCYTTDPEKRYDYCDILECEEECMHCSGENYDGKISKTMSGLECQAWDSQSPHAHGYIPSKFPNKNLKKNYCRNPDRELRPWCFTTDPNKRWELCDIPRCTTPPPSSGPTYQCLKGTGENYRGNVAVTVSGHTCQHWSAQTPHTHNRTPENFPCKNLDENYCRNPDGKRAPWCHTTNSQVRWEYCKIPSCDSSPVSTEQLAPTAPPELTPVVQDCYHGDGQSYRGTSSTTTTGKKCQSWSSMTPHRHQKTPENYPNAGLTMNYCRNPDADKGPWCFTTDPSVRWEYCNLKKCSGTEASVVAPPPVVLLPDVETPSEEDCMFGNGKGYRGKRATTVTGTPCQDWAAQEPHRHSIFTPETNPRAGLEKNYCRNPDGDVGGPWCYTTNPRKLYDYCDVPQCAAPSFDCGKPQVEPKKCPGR
Experimental: as §1

[1] = target: porcine pancreatic elastase (Sus scrofa, UniProt P00772); assay: Inhibition of porcine pancreatic elastase (AAPV-AFC fluorogenic substrate); type: biochemical
Sequence of porcine pancreatic elastase (P00772 27-266): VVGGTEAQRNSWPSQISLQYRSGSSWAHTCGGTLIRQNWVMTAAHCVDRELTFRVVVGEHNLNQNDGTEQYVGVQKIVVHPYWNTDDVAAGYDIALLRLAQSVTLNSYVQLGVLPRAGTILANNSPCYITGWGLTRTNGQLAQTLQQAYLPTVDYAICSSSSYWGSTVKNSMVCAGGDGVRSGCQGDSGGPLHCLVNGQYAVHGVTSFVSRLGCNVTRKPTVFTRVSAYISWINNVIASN
Experimental: The activity of porcine pancreatic elastase (E.C. 3.4.21.36) was determined using the flourogenic substrate methoxy-succinyl-alanyl-alanyl-prolyl-valyl-trifluoromethylcoumarine (AAPV-AFC, Bachem, Bubendorf, Switzerland).
Elastase (100 μl) and inhibitor (100 μl) were pre-incubated for 30 minutes. A solution of substrate (1.8 ml of a 0.1 mM solution) was then added. Flourescence, Ex 400 Em 505, was followed and the %-inhbition was calculated from the initial activity of samples and controls. The dissociation constant (Ki) was determined according to the method of Green and Work (8).

[2] = at least threefold excess of the inhibitor
[3] = substrate 0.1 mM TGPLpNA, inhibitor 1 μg/ml, n.i. = no inhibition

AQEPVKGPVSTKPGSCPIILIRCAMLNPPNRCLKDTDCPGIKKCCEGSCGMACFVPQ (cysteine pairing not given here) [prominent inhibitor]
acid stability (Acid stability): acid stable | isoelectric point (Isoelectric focussing): 9.7 pH | inhibition of trypsin (in words) (trypsin; [2]): neither Alpha- chymotrypsin, nor trypsin and plasmin were significantly inhibited | DISSOCIATION CONSTANT (Ki), trypsin (trypsin; [3]): n.i. | inhibition of Alpha-chymotrypsin (in words) (Alpha-chymotrypsin; [2]): neither Alpha- chymotrypsin, nor trypsin and plasmin were significantly inhibited | DISSOCIATION CONSTANT (Ki), Alpha-chymotrypsin (Alpha-chymotrypsin; substrate 0.5 mM AAPFpNA, inhibitor up to 1 μg/ml (threefold molar), n.i. = no inhibition): n.i. | inhibition of HLE (in words) (human leukocyte elastase): found to inhibit | Ki (human leukocyte elastase; Poly LC-HPLC peak compared with inhibitor from human skin, read-out: Ki, titrated against HLE): 330 pM | Ki (human leukocyte elastase; substrate 2 mM AAPVpNA, 1 μg/ml HLE, read-out: DISSOCIATION CONSTANT (Ki), human leukocyte elastase): 300 pM | DISSOCIATION CONSTANT (Ki), human cathepsin G (human cathepsin G): n.i. | IC50 (Proteinase 3): 9500 pM | inhibition of plasmin (in words) (plasmin; [2]): neither Alpha- chymotrypsin, nor trypsin and plasmin were significantly inhibited | DISSOCIATION CONSTANT (Ki), plasmin (plasmin; [3]): n.i. | inhibition of porcine pancreatic elastase (in words) [1]: found to inhibit | Ki ([1]; substrate 0.1 mM AAPV-AFC, method of Green and Work, read-out: DISSOCIATION CONSTANT (Ki), porcine pancreatic elastase): 1000 pM
